Assay results reported in IntAct's records for PubMed 31515488.

B1: G-patch domain and KOW motifs-containing protein (Homo sapiens), Q92917 (parent)
chain: MADSKEGVLPLTAASTAPISFGFTRTSARRRLADSGDGAGPSPEEKDFLKTVEGRELQSVKPQEAPKELVIPLIQNGHRRQPPARPPGPSTDTGALADGVVSQAVKELIAESKKSLEERENAGVDPTLAIPMIQKGCTPSGEGADSEPRAETVPEEANYEAVPVEAYGLAMLRGMGWKPGEGIGRTFNQVVKPRVNSLRPKGLGLGANLTEAQALTPTGPSRMPRPDEEQEKDKEDQPQGLVPGGAVVVLSGPHRGLYGKVEGLDPDNVRAMVRLAVGSRVVTVSEYYLRPVSQQEFDKNTLDLRQQNGTASSRKTLWNQELYIQQDNSERKRKHLPDRQDGPAAKSEKAAPRSQHWLHRDLRVRFVDNMYKGGQYYNTKMIIEDVLSPDTCVCRTDEGRVLEGLREDMLETLVPKAEGDRVMVVLGPQTGRVGHLLSRDRARSRALVQLPRENQVVELHYDAICQYMGPSDTDDD
B2: Bleomycin hydrolase (Homo sapiens), Q13867 (parent)
chain: MSSSGLNSEKVAALIQKLNSDPQFVLAQNVGTTHDLLDICLKRATVQRAQHVFQHAVPQEGKPITNQKSSGRCWIFSCLNVMRLPFMKKLNIEEFEFSQSYLFFWDKVERCYFFLSAFVDTAQRKEPEDGRLVQFLLMNPANDGGQWDMLVNIVEKYGVIPKKCFPESYTTEATRRMNDILNHKMREFCIRLRNLVHSGATKGEISATQDVMMEEIFRVVCICLGNPPETFTWEYRDKDKNYQKIGPITPLEFYREHVKPLFNMEDKICLVNDPRPQHKYNKLYTVEYLSNMVGGRKTLYNNQPIDFLKKMVAASIKDGEAVWFGCDVGKHFNSKLGLSDMNLYDHELVFGVSLKNMNKAERLTFGESLMTHAMTFTAVSEKDDQDGAFTKWRVENSWGEDHGHKGYLCMTDEWFSEYVYEVVVDRKHVPEEVLAVLEQEPIILPAWDPMGALAE
B3: Adenylate kinase 8 (Homo sapiens), Q96MA6 (parent)
chain: MDATIAPHRIPPEMPQYGEENHIFELMQNMLEQLLIHQPEDPIPFMIQHLHRDNDNVPRIVILGPPASGKTTIAMWLCKHLNSSLLTLENLILNEFSYTATEARRLYLQRKTVPSALLVQLIQERLAEEDCIKQGWILDGIPETREQALRIQTLGITPRHVIVLSAPDTVLIERNLGKRIDPQTGEIYHTTFDWPPESEIQNRLMVPEDISELETAQKLLEYHRNIVRVIPSYPKILKVISADQPCVDVFYQALTYVQSNHRTNAPFTPRVLLLGPVGSGKSLQAALLAQKYRLVNVCCGQLLKEAVADRTTFGELIQPFFEKEMAVPDSLLMKVLSQRLDQQDCIQKGWVLHGVPRDLDQAHLLNRLGYNPNRVFFLNVPFDSIMERLTLRRIDPVTGERYHLMYKPPPTMEIQARLLQNPKDAEEQVKLKMDLFYRNSADLEQLYGSAITLNGDQDPYTVFEYIESGIINPLPKKIP
B4: Sperm surface protein Sp17 (Homo sapiens), Q15506 (parent)
chain: MSIPFSNTHYRIPQGFGNLLEGLTREILREQPDNIPAFAAAYFESLLEKREKTNFDPAEWGSKVEDRFYNNHAFEEQEPPEKSDPKQEESQISGKEEETSVTILDSSEEDKEKEEVAAVKIQAAFRGHIAREEAKKMKTNSLQNEEKEENK
B5: Paraneoplastic antigen-like protein 5 (Homo sapiens), Q96PV4 (parent)
chain: MALTLLEDWCKGMDMDPRKALLIVGIPMECSEVEIQDTVKAGLQPLCAYRVLGRMFRREDNAKAVFIELADTVNYTTLPSHIPGKGGSWEVVVKPRNPDDEFLSRLNYFLKDEGRSMTDVARALGCCSLPAESLDAEVMPQVRSPPLEPPKESMWYRKLKVFSGTASPSPGEETFEDWLEQVTEIMPIWQVSEVEKRRRLLESLRGPALSIMRVLQANNDSITVEQCLDALKQIFGDKEDFRASQFRFLQTSPKIGEKVSTFLLRLEPLLQKAVHKSPLSVRSTDMIRLKHLLARVAMTPALRGKLELLDQRGCPPNFLELMKLIRDEEEWENTEAVMKNKEKPSGRGRGASGRQARAEASVSAPQATVQARSFSDSSPQTIQGGLPPLVKRRRLLGSESTRGEDHGQATYPKAENQTPGREGPQAAGEELGNEAGAGAMSHPKPWET
partner: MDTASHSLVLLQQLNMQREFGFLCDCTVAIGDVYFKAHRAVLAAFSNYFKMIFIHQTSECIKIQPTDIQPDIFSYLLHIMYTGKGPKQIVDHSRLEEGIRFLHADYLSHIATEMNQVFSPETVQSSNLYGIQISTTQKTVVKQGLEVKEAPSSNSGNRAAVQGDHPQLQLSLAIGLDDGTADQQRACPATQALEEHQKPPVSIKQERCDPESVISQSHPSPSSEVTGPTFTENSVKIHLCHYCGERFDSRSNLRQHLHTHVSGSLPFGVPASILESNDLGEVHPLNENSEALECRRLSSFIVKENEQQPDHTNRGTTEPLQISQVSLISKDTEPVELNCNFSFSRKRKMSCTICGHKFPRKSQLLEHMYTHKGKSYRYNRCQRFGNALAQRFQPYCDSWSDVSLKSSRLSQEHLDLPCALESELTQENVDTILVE
B6: Dynein light chain 2, cytoplasmic (Homo sapiens), Q96FJ2 (parent)
chain: MSDRKAVIKNADMSEDMQQDAVDCATQAMEKYNIEKDIAAYIKKEFDKKYNPTWHCIVGRNFGSYVTHETKHFIYFYLGQVAILLFKSG
partner: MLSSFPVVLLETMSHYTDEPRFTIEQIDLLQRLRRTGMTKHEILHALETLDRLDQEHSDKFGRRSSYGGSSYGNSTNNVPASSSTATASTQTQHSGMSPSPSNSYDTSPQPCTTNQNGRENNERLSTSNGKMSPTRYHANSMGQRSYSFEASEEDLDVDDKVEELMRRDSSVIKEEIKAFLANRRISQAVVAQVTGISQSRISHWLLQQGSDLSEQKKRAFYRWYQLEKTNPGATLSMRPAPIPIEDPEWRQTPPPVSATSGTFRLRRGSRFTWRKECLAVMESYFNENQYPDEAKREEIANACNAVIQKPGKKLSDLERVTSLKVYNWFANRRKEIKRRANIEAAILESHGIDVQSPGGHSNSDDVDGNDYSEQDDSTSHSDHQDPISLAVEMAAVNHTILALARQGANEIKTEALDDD
B7: DNA mismatch repair protein Mlh1 (Homo sapiens), P40692 (parent)
chain: MSFVAGVIRRLDETVVNRIAAGEVIQRPANAIKEMIENCLDAKSTSIQVIVKEGGLKLIQIQDNGTGIRKEDLDIVCERFTTSKLQSFEDLASISTYGFRGEALASISHVAHVTITTKTADGKCAYRASYSDGKLKAPPKPCAGNQGTQITVEDLFYNIATRRKALKNPSEEYGKILEVVGRYSVHNAGISFSVKKQGETVADVRTLPNASTVDNIRSIFGNAVSRELIEIGCEDKTLAFKMNGYISNANYSVKKCIFLLFINHRLVESTSLRKAIETVYAAYLPKNTHPFLYLSLEISPQNVDVNVHPTKHEVHFLHEESILERVQQHIESKLLGSNSSRMYFTQTLLPGLAGPSGEMVKSTTSLTSSSTSGSSDKVYAHQMVRTDSREQKLDAFLQPLSKPLSSQPQAIVTEDKTDISSGRARQQDEEMLELPAPAEVAAKNQSLEGDTTKGTSEMSEKRGPTSSNPRKRHREDSDVEMVEDDSRKEMTAACTPRRRIINLTSVLSLQEEINEQGHEVLREMLHNHSFVGCVNPQWALAQHQTKLYLLNTTKLSEELFYQILIYDFANFGVLRLSEPAPLFDLAMLALDSPESGWTEEDGPKEGLAEYIVEFLKKKAEMLADYFSLEIDEEGNLIGLPLLIDNYVPPLEGLPIFILRLATEVNWDEEKECFESLSKECAMFYSIRKQYISEESTLSGQQSEVPGSIPNSWKWTVEHIVYKALRSHILPPKHFTEDGNILQLANLPDLYKVFERC
partner: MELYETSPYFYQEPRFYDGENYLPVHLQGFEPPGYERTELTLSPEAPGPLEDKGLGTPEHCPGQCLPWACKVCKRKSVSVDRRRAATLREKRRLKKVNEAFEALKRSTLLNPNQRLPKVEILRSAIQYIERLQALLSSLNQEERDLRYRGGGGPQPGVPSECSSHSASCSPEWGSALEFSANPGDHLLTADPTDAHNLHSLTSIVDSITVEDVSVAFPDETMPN
B8: Scaffold protein ILK (Homo sapiens), Q13418 (parent)
chain: MDDIFTQCREGNAVAVRLWLDNTENDLNQGDDHGFSPLHWACREGRSAVVEMLIMRGARINVMNRGDDTPLHLAASHGHRDIVQKLLQYKADINAVNEHGNVPLHYACFWGQDQVAEDLVANGALVSICNKYGEMPVDKAKAPLRELLRERAEKMGQNLNRIPYKDTFWKGTTRTRPRNGTLNKHSGIDFKQLNFLTKLNENHSGELWKGRWQGNDIVVKVLKVRDWSTRKSRDFNEECPRLRIFSHPNVLPVLGACQSPPAPHPTLITHWMPYGSLYNVLHEGTNFVVDQSQAVKFALDMARGMAFLHTLEPLIPRHALNSRSVMIDEDMTARISMADVKFSFQCPGRMYAPAWVAPEALQKKPEDTNRRSADMWSFAVLLWELVTREVPFADLSNMEIGMKVALEGLRPTIPPGISPHVCKLMKICMNEDPAKRPKFDMIVPILEKMQDK
partner: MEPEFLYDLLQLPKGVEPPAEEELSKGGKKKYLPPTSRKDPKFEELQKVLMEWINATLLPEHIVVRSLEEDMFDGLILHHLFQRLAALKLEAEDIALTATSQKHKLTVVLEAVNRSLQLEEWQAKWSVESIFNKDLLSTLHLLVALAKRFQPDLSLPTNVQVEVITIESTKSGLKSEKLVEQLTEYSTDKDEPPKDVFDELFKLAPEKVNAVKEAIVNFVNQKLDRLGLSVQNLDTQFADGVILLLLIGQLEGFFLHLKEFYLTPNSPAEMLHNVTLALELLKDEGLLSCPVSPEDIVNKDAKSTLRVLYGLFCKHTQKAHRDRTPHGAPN
B9: Transcription factor 12 (Homo sapiens), Q99081-3 (parent)
chain: MNPQQQRMAAIGTDKELSDLLDFSAMFSPPVNSGKTRPTTLGSSQFSGSGIDERGGTTSWGTSGQPSPSYDSSRGFTDSPHYSDHLNDSRLGAHEGLSPTPFMNSNLMGKTSERGSFSLYSRDTGLPGCQSSLLRQDLGLGSPAQLSSSGKPGTAYYSFSATSSRRRPLHDSAALDPLQAKKVRKVPPGLPSSVYAPSPNSDDFNRESPSYPSPKPPTSMFASTFFMQDGTHNSSDLWSSSNGMSQPGFGGILGTSTSHMSQSSSYGNLHSHDRLSYPPHSVSPTDINTSLPPMSSFHRGSTSSSPYVAASHTPPINGSDSILGTRGNAAGSSQTGDALGKALASIYSPDHTSSSFPSNPSTPVGSPSPLTGTSQWPRPGGQAPSSPSYENSLHSLKNRVEQQLHEHLQDAMSFLKDVCEQSRMEDRLDRLDDAIHVLRNHAVGPSTSLPAGHSDIHSLLGPSHNAPIGSLNSNYGGSSLVASSRSASMVGTHREDSVSLNGNHSVLSSTVTTSSTDLNHKTQENYRGGLQSQSGTVVTTEIKTENKEKDENLHEPPSSDDMKSDDESSQKDIKVSSRGRTSSTNEDEDLNPEQKIEREKERRMANNARERLRVRDINEAFKELGRMCQLHLKSEKPQTKLLILHQAVAVILSLEQQVRERNLNPKAACLKRREEEKVSAVSAEPPTTLPGTHPGLSETTNPMGHM

Variants of: B1
Conditions: with tri23_human TRIM23, P36406
Sequence of tri23_human TRIM23, P36406 (P36406 whole entry): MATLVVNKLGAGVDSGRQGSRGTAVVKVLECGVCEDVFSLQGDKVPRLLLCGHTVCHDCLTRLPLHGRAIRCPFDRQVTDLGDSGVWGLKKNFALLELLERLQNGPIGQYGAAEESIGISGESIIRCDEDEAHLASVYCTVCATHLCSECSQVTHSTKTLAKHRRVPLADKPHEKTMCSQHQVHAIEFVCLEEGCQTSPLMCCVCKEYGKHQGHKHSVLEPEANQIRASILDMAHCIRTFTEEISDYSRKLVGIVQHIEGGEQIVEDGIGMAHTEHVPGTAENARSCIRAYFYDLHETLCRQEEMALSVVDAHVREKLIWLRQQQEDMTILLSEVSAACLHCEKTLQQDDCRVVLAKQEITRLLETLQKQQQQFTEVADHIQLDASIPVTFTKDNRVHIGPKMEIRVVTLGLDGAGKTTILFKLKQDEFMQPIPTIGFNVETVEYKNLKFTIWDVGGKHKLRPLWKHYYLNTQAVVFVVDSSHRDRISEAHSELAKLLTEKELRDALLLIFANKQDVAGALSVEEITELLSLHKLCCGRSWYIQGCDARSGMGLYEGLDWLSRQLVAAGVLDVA

Variant	effect of a mutation on the interaction
V393A	with no effect

Variants of: B1
Conditions: with traf2_human TRAF2, Q12933
Sequence of traf2_human TRAF2, Q12933 (Q12933 whole entry): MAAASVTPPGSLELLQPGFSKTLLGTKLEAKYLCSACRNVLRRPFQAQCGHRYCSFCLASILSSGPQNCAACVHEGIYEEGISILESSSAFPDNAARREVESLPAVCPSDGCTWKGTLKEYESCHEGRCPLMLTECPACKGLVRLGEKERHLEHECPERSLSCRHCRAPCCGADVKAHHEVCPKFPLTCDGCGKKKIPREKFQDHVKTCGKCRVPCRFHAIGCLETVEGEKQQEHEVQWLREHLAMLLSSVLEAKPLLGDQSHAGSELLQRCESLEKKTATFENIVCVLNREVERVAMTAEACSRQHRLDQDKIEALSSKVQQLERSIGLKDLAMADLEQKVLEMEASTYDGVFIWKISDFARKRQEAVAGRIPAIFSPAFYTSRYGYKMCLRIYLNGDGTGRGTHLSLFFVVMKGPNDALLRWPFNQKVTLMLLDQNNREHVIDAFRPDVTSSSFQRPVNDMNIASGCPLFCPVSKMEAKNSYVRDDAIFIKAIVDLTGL

Variant	effect of a mutation on the interaction
V393A	with no effect

Variants of: B2
Conditions: with ntaq1_human NTAQ1, Q96HA8

Variant	effect of a mutation on the interaction
E381K	with no effect

Variants of: B2
Conditions: with nud12_human NUDT12, Q9BQG2
Sequence of nud12_human NUDT12, Q9BQG2 (Q9BQG2 whole entry): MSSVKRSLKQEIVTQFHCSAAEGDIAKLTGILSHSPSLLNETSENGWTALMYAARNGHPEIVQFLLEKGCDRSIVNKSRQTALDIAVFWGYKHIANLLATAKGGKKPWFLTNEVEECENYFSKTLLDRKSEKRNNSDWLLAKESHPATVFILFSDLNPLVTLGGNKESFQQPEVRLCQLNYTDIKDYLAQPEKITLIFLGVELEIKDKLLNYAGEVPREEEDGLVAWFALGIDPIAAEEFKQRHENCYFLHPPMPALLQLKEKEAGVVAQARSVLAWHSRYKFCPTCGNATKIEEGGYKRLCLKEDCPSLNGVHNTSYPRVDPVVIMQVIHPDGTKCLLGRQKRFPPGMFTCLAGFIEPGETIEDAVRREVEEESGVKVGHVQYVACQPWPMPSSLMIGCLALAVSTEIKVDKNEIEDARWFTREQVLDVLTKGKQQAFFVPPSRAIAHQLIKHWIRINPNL

Variant	effect of a mutation on the interaction
I443V	with no effect

Variants of: B3
Conditions: with mcm7_human MCM7, P33993
Sequence of mcm7_human MCM7, P33993 (P33993 whole entry): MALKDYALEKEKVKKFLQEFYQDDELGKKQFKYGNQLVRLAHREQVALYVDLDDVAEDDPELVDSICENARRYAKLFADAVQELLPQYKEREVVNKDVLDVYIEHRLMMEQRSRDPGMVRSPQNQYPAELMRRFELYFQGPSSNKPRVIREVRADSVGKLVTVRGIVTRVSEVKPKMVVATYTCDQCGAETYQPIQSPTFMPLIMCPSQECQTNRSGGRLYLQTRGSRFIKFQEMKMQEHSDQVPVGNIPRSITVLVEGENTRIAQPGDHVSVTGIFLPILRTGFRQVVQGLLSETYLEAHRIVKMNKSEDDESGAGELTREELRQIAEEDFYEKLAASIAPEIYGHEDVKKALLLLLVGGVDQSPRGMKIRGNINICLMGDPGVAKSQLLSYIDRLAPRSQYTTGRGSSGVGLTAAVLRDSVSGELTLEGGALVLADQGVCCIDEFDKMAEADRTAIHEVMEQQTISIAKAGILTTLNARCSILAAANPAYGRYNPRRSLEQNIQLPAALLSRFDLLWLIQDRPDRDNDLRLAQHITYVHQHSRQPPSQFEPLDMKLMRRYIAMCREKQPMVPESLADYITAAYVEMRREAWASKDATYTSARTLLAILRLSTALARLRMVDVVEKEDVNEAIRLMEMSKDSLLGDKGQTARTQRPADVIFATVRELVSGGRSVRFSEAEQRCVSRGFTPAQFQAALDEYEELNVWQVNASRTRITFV

Variant	effect of a mutation on the interaction
V227I	with no effect
T169K	with no effect
R339C	disrupting interaction strength

Variants of: B4
Conditions: with aka7g_human AKAP7, Q9P0M2
Sequence of aka7g_human AKAP7, Q9P0M2 (Q9P0M2 whole entry): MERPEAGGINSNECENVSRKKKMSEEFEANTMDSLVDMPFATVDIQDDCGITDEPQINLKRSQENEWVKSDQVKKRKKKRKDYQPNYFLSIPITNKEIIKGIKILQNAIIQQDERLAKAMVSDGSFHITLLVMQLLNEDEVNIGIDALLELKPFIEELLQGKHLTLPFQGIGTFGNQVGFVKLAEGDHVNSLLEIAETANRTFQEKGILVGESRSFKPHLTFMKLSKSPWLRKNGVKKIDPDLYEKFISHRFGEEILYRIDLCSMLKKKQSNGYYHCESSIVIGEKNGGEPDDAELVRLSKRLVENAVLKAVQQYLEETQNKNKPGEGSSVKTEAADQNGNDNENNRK

Variant	effect of a mutation on the interaction
R126Q	disrupting interaction strength

Variants of: B5
Conditions: with zbt25_human ZBTB25, P24278

Variant	effect of a mutation on the interaction
L21Q	disrupting interaction strength
R312Q	with no effect
T261A	with no effect
V274M	with no effect

Variants of: B6
Conditions: with hmbx1_human HMBOX1, Q6NT76

Variant	effect of a mutation on the interaction
E30D	with no effect

Variants of: B7
Conditions: with myog_human MYOG

Variant	effect of a mutation on the interaction
V384D	with no effect
S106N	with no effect
A441T	with no effect
V326A	with no effect
S406N	with no effect
V213M	with no effect

Variants of: B7
Conditions: with myog_human MYOG
Remark: another data set of the same source

Variant	effect of a mutation on the interaction
R69K	with no effect

Variants of: B8
Conditions: with parvg_human PARVG

Variant	effect of a mutation on the interaction
V340G	with no effect

Variants of: B9
Conditions: with cdn2c_human CDKN2C

Variant	effect of a mutation on the interaction
A155T	with no effect
Y120C	with no effect

Variants of: B9
Conditions: with psa1_human PSMA1, P25786
Sequence of psa1_human PSMA1, P25786 (P25786 whole entry): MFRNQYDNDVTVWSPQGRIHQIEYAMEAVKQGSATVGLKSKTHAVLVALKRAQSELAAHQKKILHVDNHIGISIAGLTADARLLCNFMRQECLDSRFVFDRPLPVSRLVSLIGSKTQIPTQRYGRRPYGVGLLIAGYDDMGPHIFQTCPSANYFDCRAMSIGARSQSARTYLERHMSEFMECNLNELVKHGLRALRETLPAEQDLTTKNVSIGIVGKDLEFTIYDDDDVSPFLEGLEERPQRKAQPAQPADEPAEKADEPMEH

Variant	effect of a mutation on the interaction
A155T	with no effect
Y120C	with no effect
